We go through two substances from PMC6561935, “Hsp90 middle domain phosphorylation initiates a complex conformational program to recruit the ATPase-stimulating cochaperone Aha1” (Nature Communications, 2019).

Assay [1] deals with Hsp90-H210A (human) (UniProt P07900). Nature of the assay: ITC; 20 mM Tris pH 7.5, 5 mM NaCl, 1 mM EDTA, 30 °C; Hsp90 listed as protein, hAha1 as ligand; at least 3 experiments. A general note: Isothermal titration calorimetry measures the heat released or taken up as one component is titrated into another.
The target in assay [2] is purified Hsp90-H210A (human) (UniProt P07900). Description: ITC; Supplementary Table 2, obtained separately: 20 mM Tris pH 7.5, 5 mM NaCl, 1 mM EDTA, 30 °C.

Take “Human Aha1 (wild-type, full-length) (from UniProt O95433 1-338) (natural protein)”: in assay [1], the Kd was found to be 14.6 µM and the stoichiometry N turned out to be 0.37.

In assay [2], “purified full-length Aha1 (from UniProt O95433 1-338) (natural protein)” displayed a fold increase of Kd against wild-type Hsp90 of 2 fold.

By Kd is commonly meant the equilibrium constant for the complex coming apart. High values mean weaker binding, low ones tighter binding. The stoichiometry N is a count of units in the complex or per binding partner.
